In doi:10.1101/2020.12.08.416958 one finds maximum enthalpy data, which are given here for one substance.

In this assay the target is L-lactate oxidase (UniProt Q44467). Briefly: ITC.
Chain of UniProt Q44467 (Q44467 whole entry): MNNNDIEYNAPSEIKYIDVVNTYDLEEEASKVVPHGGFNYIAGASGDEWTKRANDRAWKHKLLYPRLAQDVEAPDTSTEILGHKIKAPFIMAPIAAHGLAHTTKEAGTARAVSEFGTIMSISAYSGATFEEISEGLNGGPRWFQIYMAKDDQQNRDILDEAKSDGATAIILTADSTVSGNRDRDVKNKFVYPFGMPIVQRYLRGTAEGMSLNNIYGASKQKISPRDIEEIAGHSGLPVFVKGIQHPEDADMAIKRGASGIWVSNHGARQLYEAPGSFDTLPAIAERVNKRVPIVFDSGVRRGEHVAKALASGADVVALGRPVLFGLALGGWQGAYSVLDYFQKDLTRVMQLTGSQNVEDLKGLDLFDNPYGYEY

Substance “Poly-L-lysine hydrobromide (molecular weight 4,000-15,000 Da) (peptide)” came in with a maximum enthalpy of 0.7 kcal/mol.
